Measurements as given in patent US20110028686A1 (published 2011).
Read-outs that look alike come from different tables or passages of the source. Square brackets hold non-standard residues; d marks the D form. Ends that are not written are not given here. pS = N[C@@H](COP(=O)(O)O)C(=O)O

Key:
[1] = target: carbonic anhydrase II (Sigma); test: fluorescence emission titration, fluorescein-labelled peptide + carbonic anhydrase II, PBS
Target sequence in this assay (chain, as listed by the source): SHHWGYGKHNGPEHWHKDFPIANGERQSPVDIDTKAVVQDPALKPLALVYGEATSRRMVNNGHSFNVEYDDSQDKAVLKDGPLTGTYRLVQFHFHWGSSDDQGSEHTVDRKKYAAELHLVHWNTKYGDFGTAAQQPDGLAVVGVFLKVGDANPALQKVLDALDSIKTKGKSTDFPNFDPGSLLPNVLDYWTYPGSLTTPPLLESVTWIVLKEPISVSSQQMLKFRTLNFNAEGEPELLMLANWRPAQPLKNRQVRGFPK

[2] = target: T1, Human recombinant Bcl-2 (1-205), soluble GST-fusion (Santa Cruz Biotechnology) (human, UniProt P10415 1-205); test: fluorescence emission titration, fluorescein-labelled peptide + serially diluted Bcl-2, 4 C, PBS
T1 construct: Bought; also called GST-Bcl-2; not shown: glutathione S-transferase (GST) fusion partner

[3] = target: T2, calmodulin (Sigma) (UniProt P62157 2-149); test: fluorescence emission titration, fluorescein-labelled peptide + calmodulin (HEPES, KCl, CaCl2 buffer)
[4] = target: T2, calmodulin (Sigma); test: FP with calmodulin (text value; Table 2 prints 52 ± 12)
[5] = target: T3, CBP KIX, wild type (Example 20) (UniProt P45481 586-665, limits assumed); test: FP, fluorescein-labelled PPKID4^P titrated with CBP KIX
T3 construct: domain: KIX; also called wild type CBP KIX; CBP MX

[6] = target: T4, CBP KIX Y658A (UniProt P45481 586-665, limits assumed); test: FP with CBP KIX variant (text value; Table 3 prints 3.9 ± 0.3)
T4 construct: domain: KIX

[7] = target: T5, HisKIX (UniProt P45481 586-672); test: FP, fluorescein-labelled peptide titrated with HisKIX, 25 C
T5 construct: range 586-672; the residue numbers fit mouse CBP; also called His-tagged CBP KIX domain; CBP KIX; not shown: amino-terminal hexahistidine tag and linker of pET15b

[8] = target: T5, HisKIX; test: as above; remark: listed apart in the source
[9] = target: T3, CBP KIX, wild type (Example 20); test: FP, 25 nM fluorescein-labelled ligand titrated with CBP KIX, 25 C
[10] = target: T2, calmodulin (Sigma); test: FP, 50 nM fluorescein-labelled peptide titrated with calmodulin, 25 C
[11] = target: T4, CBP KIX Y658A; test: FP, 25 nM fluorescein-labelled ligand titrated with CBP KIX variant, 25 C
[12] = target: T6, CBP KIX Y658F (UniProt P45481 586-665, limits assumed); test: as above
T6 construct: domain: KIX

[13] = target: T7, CBP KIX K662A (UniProt P45481 586-665, limits assumed); test: as above
T7 construct: domain: KIX

[14] = target: T8, CBP KIX Y650A (Example 20) (UniProt P45481 586-665, limits assumed); test: as above
T8 construct: domain: KIX

[15] = target: T9, CBP KIX L603A (UniProt P45481 586-665, limits assumed); test: as above
T9 construct: domain: KIX

[16] = target: T10, CBP KIX LL652-3AA (UniProt P45481 586-665, limits assumed); test: as above
T10 construct: domain: KIX

[17] = target: T11, CBP KIX K606A (UniProt P45481 586-665, limits assumed); test: as above
T11 construct: domain: KIX

[18] = target: T12, CBP KIX I657A (UniProt P45481 586-665, limits assumed); test: as above
T12 construct: domain: KIX; also called 1657A

[19] = target: T13, CBP KIX Q661A (UniProt P45481 586-665, limits assumed); test: as above
T13 construct: domain: KIX

[20] = target: T14, CBP KIX E655A (UniProt P45481 586-665, limits assumed); test: as above
T14 construct: domain: KIX

[21] = target: T15, CBP KIX I660A (UniProt P45481 586-665, limits assumed); test: as above
T15 construct: domain: KIX; also called 1660A

[22] = target: carbonic anhydrase II (Sigma); test: FP, 50 nM fluorescein-labelled peptide titrated with carbonic anhydrase II, 25 C
Target sequence in this assay (chain, as listed by the source): as above

[23] = target: T2, calmodulin (Sigma); test: FP; specificity ratio
[24] = target: T4, CBP KIX Y658A; test: FP with CBP KIX variant
[25] = target: T6, CBP KIX Y658F; test: FP with CBP KIX variant
[26] = target: T7, CBP KIX K662A; test: FP with CBP KIX variant
[27] = target: T8, CBP KIX Y650A (Example 20); test: FP with CBP KIX variant
[28] = target: T9, CBP KIX L603A; test: FP with CBP KIX variant
[29] = target: T10, CBP KIX LL652-3AA; test: FP with CBP KIX variant
[30] = target: T11, CBP KIX K606A; test: FP with CBP KIX variant
[31] = target: T12, CBP KIX I657A; test: FP with CBP KIX variant
[32] = target: T16, CBP KIX L599A (UniProt P45481 586-665, limits assumed); test: FP with CBP KIX variant
T16 construct: domain: KIX

[33] = target: T13, CBP KIX Q661A; test: FP with CBP KIX variant
[34] = target: T14, CBP KIX E655A; test: FP with CBP KIX variant
[35] = target: T15, CBP KIX I660A; test: FP with CBP KIX variant
[36] = target: T5, HisKIX; test: FP with HisKIX; end of the range assigned by Table 1
[37] = target: T16, CBP KIX L599A; test: FP, 25 nM fluorescein-labelled ligand titrated with CBP KIX variant, 25 C
[38] = target: T5, HisKIX; test: FP with HisKIX
[39] = target: T2, calmodulin (Sigma); test: FP with calmodulin
[40] = target: carbonic anhydrase II (Sigma); test: FP, 50 nM fluorescein-labelled peptide titrated with carbonic anhydrase II, 25 C; remark: listed apart in the source
Target sequence in this assay (P00921 2-260): as the sequence (chain, as listed by the source) above

[41] = target: T1, Human recombinant Bcl-2 (1-205), …; test: fluorescence emission titration with Bcl-2

T12 sequence (P45481 586-665 I657A limits assumed): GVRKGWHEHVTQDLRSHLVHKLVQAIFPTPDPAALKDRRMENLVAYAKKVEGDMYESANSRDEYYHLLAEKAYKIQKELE
T1 sequence (P10415 1-205): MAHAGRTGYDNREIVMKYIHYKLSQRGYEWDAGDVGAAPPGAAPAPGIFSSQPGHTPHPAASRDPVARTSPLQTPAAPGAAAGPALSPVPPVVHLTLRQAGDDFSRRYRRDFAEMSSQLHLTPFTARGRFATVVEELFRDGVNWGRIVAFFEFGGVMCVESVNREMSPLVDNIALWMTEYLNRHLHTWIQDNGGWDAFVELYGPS
T16 sequence (P45481 586-665 L599A limits assumed): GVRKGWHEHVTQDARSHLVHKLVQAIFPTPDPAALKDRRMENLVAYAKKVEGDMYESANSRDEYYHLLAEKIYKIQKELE
T14 sequence (P45481 586-665 E655A limits assumed): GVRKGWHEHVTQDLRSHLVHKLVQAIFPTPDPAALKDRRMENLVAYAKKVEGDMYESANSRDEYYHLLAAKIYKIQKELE
T7 sequence (P45481 586-665 K662A limits assumed): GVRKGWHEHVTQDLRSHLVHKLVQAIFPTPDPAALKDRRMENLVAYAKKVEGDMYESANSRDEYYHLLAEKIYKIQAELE
T5 sequence (P45481 586-672): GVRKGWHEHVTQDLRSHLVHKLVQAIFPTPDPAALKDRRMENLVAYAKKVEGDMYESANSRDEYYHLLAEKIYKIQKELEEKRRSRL
T6 sequence (P45481 586-665 Y658F limits assumed): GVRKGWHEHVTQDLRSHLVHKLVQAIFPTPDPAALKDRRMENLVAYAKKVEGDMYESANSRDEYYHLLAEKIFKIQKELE
T4 sequence (P45481 586-665 Y658A limits assumed): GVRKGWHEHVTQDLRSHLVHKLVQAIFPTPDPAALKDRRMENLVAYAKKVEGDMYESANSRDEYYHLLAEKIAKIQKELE
T13 sequence (P45481 586-665 Q661A limits assumed): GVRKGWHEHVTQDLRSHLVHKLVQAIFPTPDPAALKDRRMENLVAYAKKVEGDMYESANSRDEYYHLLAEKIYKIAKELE
T3 sequence (P45481 586-665 limits assumed): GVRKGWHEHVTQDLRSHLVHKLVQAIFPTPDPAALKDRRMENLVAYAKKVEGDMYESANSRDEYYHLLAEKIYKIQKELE
T11 sequence (P45481 586-665 K606A limits assumed): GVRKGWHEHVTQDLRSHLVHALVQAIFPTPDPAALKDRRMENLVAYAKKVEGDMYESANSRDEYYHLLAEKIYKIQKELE
T9 sequence (P45481 586-665 L603A limits assumed): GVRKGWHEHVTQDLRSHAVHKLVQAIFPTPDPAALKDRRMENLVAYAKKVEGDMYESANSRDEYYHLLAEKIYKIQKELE
T15 sequence (P45481 586-665 I660A limits assumed): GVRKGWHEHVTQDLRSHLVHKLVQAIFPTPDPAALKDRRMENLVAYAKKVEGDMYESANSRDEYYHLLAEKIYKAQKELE
T10 sequence (P45481 other isoform, or with tags, fused parts or gaps limits assumed): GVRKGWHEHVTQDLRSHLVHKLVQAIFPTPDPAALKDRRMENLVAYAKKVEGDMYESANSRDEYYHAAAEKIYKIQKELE
T8 sequence (P45481 586-665 Y650A limits assumed): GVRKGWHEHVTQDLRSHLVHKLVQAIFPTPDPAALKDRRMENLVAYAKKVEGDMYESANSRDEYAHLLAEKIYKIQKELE

B1: Bak peptide (peptide)
peptide: GQVGRQLAIIGDDINRYC-NH2
modifications: not fully specified (residue 18)
notes: Labelled form used for Kd determinations carries an additional carboxy-terminal YC; The printed mass (1724) looks too small for residues 72-94; also called Bak BH3 peptide; Bak (72-94)
Kd [1]: 22 µM
Kd [2]: 363 nM
Kd [3]: 25 µM

GPSQPTYPGDDAPVRRL[pS]FFYILLDLYLDAPGVC(acetamidofluorescein)-NH2 (designed binder, also called PPKID4 (phosphorylated)) [PPKID4^P]
Kd [4]: 51 µM
Kd [5]: 610 nM
Kd [6]: 4.1 µM
Kd [7]: 515 nM
Kd [8]: 515 nM
Kd [9]: 610 nM
Kd [10]: 52 µM
Kd [11]: 3.9 µM
Kd [12]: 4.1 µM
Kd [13]: 3.9 µM
Kd [14]: 3000 nM
Kd [15]: 3.4 µM
Kd [16]: 2900 nM
Kd [17]: 3100 nM
Kd [18]: 2700 nM
Kd [19]: 1100 nM
Kd [20]: 540 nM
Kd [21]: 1100 nM
Kd [22]: 106 µM

GISWPTFEGDDAPVRRLSFFYILLDLYLDAPGVC(acetamidofluorescein)-NH2 (designed binder, also called PPKID6 (unphosphorylated)) [PPKID6^U]
Krel = Kd (CalM)/Kd (HisKIX) [23]: > 112
ΔΔG relative to wild type CBP KIX [24]: 0.68 kcal/mol
ΔΔG relative to wild type CBP KIX [25]: 0.97 kcal/mol
ΔΔG relative to wild type CBP KIX [26]: 0.71 kcal/mol
ΔΔG relative to wild type CBP KIX [27]: 0.52 kcal/mol
ΔΔG relative to wild type CBP KIX [28]: 0.91 kcal/mol
ΔΔG relative to wild type CBP KIX [29]: -0.8 kcal/mol
ΔΔG relative to wild type CBP KIX [30]: 0.47 kcal/mol
ΔΔG relative to wild type CBP KIX [31]: 1.1 kcal/mol
ΔΔG relative to wild type CBP KIX [32]: 1.1 kcal/mol
ΔΔG relative to wild type CBP KIX [33]: -0.16 kcal/mol
ΔΔG relative to wild type CBP KIX [34]: 0.68 kcal/mol
ΔΔG relative to wild type CBP KIX [35]: 1.4 kcal/mol
fold enhancement in affinity over KID-AB^U [36]: ≥ 77 fold
fold enhancement in affinity over KID-B^U [36]: ≥ 198 fold
fold enhancement in affinity over peptide C^U [36]: 7 to 14 fold
Kd [7]: 1500 nM
Kd [8]: 1500 nM
Kd [9]: 540 nM
Kd [10]: > 168 µM
Kd [11]: 1.7 µM
Kd [12]: 2.8 µM
Kd [13]: 1.8 µM
Kd [14]: 1300 nM
Kd [15]: 2.5 µM
Kd [16]: 140 nM
Kd [17]: 1200 nM
Kd [18]: 3600 nM
Kd [37]: 3300 nM
Kd [19]: 410 nM
Kd [20]: 1700 nM
Kd [21]: 6100 nM
Kd [22]: 79 µM

B2: peptide C^P (peptide)
peptide: RRL[pS]FFYILLDLYLDAPGVC(acetamidofluorescein)-NH2
notes: Chimeric alpha-helical portion of the PPKID peptides (residues 15-33); also called Peptide C (phosphorylated)
fold increase in affinity over KID-B^P [38]: > 20 fold
fold lower affinity than PPKID4^P [38]: 5 fold
ΔΔG relative to KID-B^P [38]: -1.8 kcal/mol
fold lower affinity than PPKID4^P [39]: 4 fold
Krel = Kd (CalM)/Kd (HisKIX) [23]: 74
Kd [10]: 178 µM
Kd [40]: 97 µM

B3: peptide C^U (peptide)
peptide: RRLSFFYILLDLYLDAPGVC(acetamidofluorescein)-NH2
notes: also called Peptide C (unphosphorylated)
ΔΔG relative to KID-B^U [38]: > -1.5 kcal/mol
Kd [7]: 21500 nM
Kd [8]: 21500 nM
Kd [40]: 66 µM

B4: KID-AB^P (peptide)
peptide: TDSQKRREILSRRP[pS]YRKILNDLSSDAPGVC-NH2
modifications: also: C-terminal Cys acetamidofluorescein-labelled in direct assays, unlabelled as competitor
notes: CREB KID residues 119-148 (A and B helices) plus a C-terminal Cys; also called KID-AB (phosphorylated); CREB KID^P
ΔΔG upon phosphorylation [38]: > 3.2 kcal/mol
ΔΔG relative to wild type CBP KIX [24]: 3.5 kcal/mol
ΔΔG relative to wild type CBP KIX [25]: 2.5 kcal/mol
ΔΔG relative to wild type CBP KIX [26]: 1.5 kcal/mol
ΔΔG relative to wild type CBP KIX [27]: 1.8 kcal/mol
ΔΔG relative to wild type CBP KIX [28]: 1.2 kcal/mol
ΔΔG relative to wild type CBP KIX [29]: 1.2 kcal/mol
ΔΔG relative to wild type CBP KIX [30]: 1 kcal/mol
ΔΔG relative to wild type CBP KIX [31]: 0.9 kcal/mol
ΔΔG relative to wild type CBP KIX [32]: 0.58 kcal/mol
ΔΔG relative to wild type CBP KIX [33]: 0.48 kcal/mol
ΔΔG relative to wild type CBP KIX [34]: 0.32 kcal/mol
ΔΔG relative to wild type CBP KIX [35]: -0.26 kcal/mol
Kd [7]: 562 nM
Kd [9]: 410 nM
Kd [11]: 142 µM
Kd [12]: 26 µM
Kd [13]: 4.8 µM
Kd [14]: 9400 nM
Kd [15]: 3.4 µM
Kd [16]: 2900 nM
Kd [17]: 2300 nM
Kd [18]: 1900 nM
Kd [37]: 1100 nM
Kd [19]: 930 nM
Kd [20]: 710 nM
Kd [21]: 270 nM

B5: p4099 (designed binder)
peptide: GPSQPTYPGDDAPVEDLIRFVGRLLAYFGDTINRYC(5‑iodoacetamidofluorescein)-NH2
notes: also called p4121-flu (labelled form, by order and mass)
fold better binding than p4101 [41]: ~2 fold
Kd [1]: 8.6 µM
Kd [2]: 352 nM
Kd [3]: 25 µM
